Test system: hMSCs
Assay: Serum starvation study of PDGF-BB bioactivity (cell proliferation)
Assay type: cell-based, human
Conditions: Invitrogen versus Prospec Bio
Method: At the initiation of this study, arbitrarily called “Day −2”, a vial of hMSCs was thawed, resuspended in 10% FBS DMEM, and seeded into 96 well TCPS plates at a seeding density of 12,500 cells/cm2 or 4000 cells/well. On “Day −1”, 24 hours following the initial cell seeding, the media in the wells was changed with DMEM prepared with various concentrations of FBS (Table 6). On Day 0, the media was supplemented with various concentrations of PDGF-BB (Prospec Bio or Invitrogen). PDGF-BB supplementation was done either once at Day 0, or continually for every 48-72 hours until Day 7.
At Days 4 and 7 following growth factor induction, cells were harvested for cell proliferation assay. Briefly, cell lysates (n=3 per media and PDGF-BB condition) were prepared by lysing cells in 0.1% Triton X-100. The PicoGreen reagent fluorescently labels double stranded DNA which was correlated to cell number using a standard curve. The PicoGreen reagent was added to the cell lysates and the fluorescence was detected with a plate reader at 485 nm excitation/528 nm emission.

B1: PDGF-BB from Invitrogen: Recombinant human PDGF-BB purchased from Invitrogen, used for subsequent studies (protein, UniProt P01127 82-190, looked up)
Platelet-derived growth …: SLGSLTIAEPAMIAECKTRTEVFEISRRLIDRTNANFLVWPPCVEVQRCSGCCNNRNVQCRPTQVQLRPVQVRKIEIVRKKPIFKKATVTLEDHLACKCETVAAARPVT
  bioactivity of PDGF-BB (cell proliferation studies): more bioactive

— patent US10081794B2, “System and method for electrospun biodegradable scaffold for bone repair” (New Jersey Institute of Technology, priority 2011, dated 2018)
